Key:
Dynamic light scattering = format: physicochemical; conditions: DLS intensity average, scattering angle 90°, room temperature, Nanopure water
α-chymotrypsin = α-chymotrypsin (Bos taurus, UniProt P00766); assay: Proteinase assay, α-chymotrypsin degradation by PAGE; format: in vitro ADME; conditions: bands of intact MEL diminished significantly after 15 min
NCI-H358 cells [1] = assay: Cell viability after 48 h treatment; format: cell-based, human
SKOV-3 cells = assay: Cell viability after 48 h treatment; format: cell-based, human
human red blood cells = assay: Hemolysis assay, hemoglobin released from red blood cells; format: cell-based; conditions: hemoglobin in supernatant, spectrophotometric
ζ potential measurement = format: physicochemical; conditions: in Nanopure water
human plasma = assay: Activated partial thromboplastin time; conditions: 20 μM MEL concentration
[2] = Plasma pharmacokinetics after tail vein injection; format: in vivo; conditions: C57BL/6 mice, i.v. tail vein, Cy5.5-labeled, two-compartment model, n = 5
NCI-H358 xenografts [3] = assay: Biodistribution by fluorescence imaging in NCI-H358 xenograft mice; format: in vivo; conditions: i.v. 3 mg/kg MEL, 24 h post-injection, n = 2
NCI-H358 xenografts [4] = assay: Tumor growth inhibition in NCI-H358 xenograft; format: in vivo, athymic nude mice; conditions: 3 mg/kg MEL-basis i.v. every 3 days, 30 days, n = 4; vehicle 453%
[5] = Innate immune response, cytokine ELISA; format: in vivo; conditions: C57BL/6 mice, 3 mg/kg MEL, blood 4 h after injection, n = 5
NCI-H358 cells [6] = assay: Cellular uptake kinetics by flow cytometry; format: cell-based, human; conditions: 1 μM of MEL for 1–4 h
SKOV3 cells = assay: Cellular uptake kinetics by flow cytometry; format: cell-based, human; conditions: 1 μM of MEL for 1–4 h

Row | Substance | Dh (hydrodynamic diameter, DLS) (Dynamic light scattering) [nm] | α-chymotrypsin digestion (in words) (α-chymotrypsin) | cytotoxicity (cell viability, in words) (NCI-H358 cells [1]) | cytotoxicity (cell viability, in words) (SKOV-3 cells) | hemolysis at 1 μM (human red blood cells; 1 μM) [%] | ζ potential (ζ potential measurement) | effect on coagulation (clotting) time, aPTT (human plasma) | hemolysis of RBCs at 60 μM (human red blood cells; 60 μM) | elimination half-life (t1/2β) [2] [min] | tumor vs. liver ratio (relative fluorescent intensities) (NCI-H358 xenografts [3]) | tumor vs. spleen ratio (relative fluorescent intensities) (NCI-H358 xenografts [3]) | tumor growth by day 30 (% of original size) (NCI-H358 xenografts [4]) | interleukin-6 (IL-6) activation [5] | cellular uptake (in words) (NCI-H358 cells [6]) | cellular uptake (in words) (SKOV3 cells)
1 | YPEG-MEL: conjugate of low PEG density: MEL on Y-shaped PEG, Mn 40 kDa, each arm 20 kDa | 21.0 ± 0.5 | digested rapidly | reduced but still apparent cytotoxicity | reduced but still apparent cytotoxicity | 16 | – | – | – | – | – | – | – | – | – | –
2 | melittin | – | digested rapidly | – | – | – | ~ 8 mV | doubling the coagulation times | near-complete hemolysis | 43 | 0.61 | 0.55 | did not lead to statistically meaningful repression of tumor growth | induces activation | fast and accelerating process | fast and accelerating process
3 | pacMELNClv: non-cleavable conjugate of MEL and bottlebrush PEG, negative control | – | – | no evident cytotoxicity | no evident cytotoxicity | – | – | – | – | – | – | – | – | – | – | –
